We go through one molecule from US20120207770A1 (NANYANG TECHNOLOGICAL UNIVERSITY, published 2012).

The target in assay [1] is T1, human integrin β5 (enriched membrane protein extract of transfected HEK293T cells) (human, UniProt P18084 24-799, limits assumed).
T1 construct: Membrane extract enriched on a sucrose step gradient before SPR; also called integrins B5; integrin 5
As to the kind of experiment: SPR, integrin over immobilized ANGPTL4, global fit to Langmuir 1:1 model. The procedure:
Purifided fibrinogen-like fragment of ANGPTL4 (cANGPTL4) was immobilized onto ProteOn GLC chip by amine coupling as recommended by the manufacturer (Bio-Rad). Different concentrations of integrins were introduced into the GLC chip at a flow rate of 25 μl/min for […] with running buffer (50 mM Tris, pH8.0, 100 mMNaC1). […] Global fitting of the data to a Languir 1:1 model was used to determine the association (Kₒₙ) dissociation (Koff) and affinity constant (KD) using scrubber2 (Biologic Software Pty Ltd). […] The affinity constants of the 6 mAbs for ANGPTL4 were determined using the one shot Kinetics protocol as described by manufacturer (Bio-Rad).
Purified fibrinogen-like fragment of ANGPTL4 (cANGPTL4) was immobilized onto ProteOn GLC chip by amine coupling, as recommended by the manufacturer (Bio-Rad). Different concentrations of integrins were introduced into the GLC chip at a flow rate of 25 μl/min for […] with running buffer (50 mM Tris, pH 8.0, 100 mM NaCl). […] Global fitting of the data to a Langmuir 1:1 model was used to determine the association (kₒₙ), dissociation (koff) and affinity constant (KD) using Scrubber2 (BioLogic Software Pte Ltd). […] The affinity constants of the 6 mAbs for ANGPTL4 were determined using the One-Shot Kinetics protocol as described by manufacturer (Bio-Rad).
For orientation: SPR reads the build-up and loss of mass on a sensor chip optically.

Assay [2] addresses T2, human integrin β1 (enriched membrane protein extract of transfected HEK293T cells) (human, UniProt P05556 21-798, limits assumed).
T2 construct: Membrane extract enriched on a sucrose step gradient before SPR; also called integrins B1
The assay is described as follows: SPR, integrin over immobilized ANGPTL4 on a GLC chip, global fit to Langmuir 1:1 model. As to the method:
Immunoprecipitates were probed with anti-Src for normalization. Activated Src, Na⁺/H⁻ exchanger 1 and catalase were assessed using cognate antibodies. Representative pictures from three experiments. (h) Intracellular ROS of A-5RT3CTRL and A-5RT3ANGPTL4 evaluated by 5-(and 6-)-chloromethyl-2′,7′-dichlorodihydro-fluorescein diacetate acetyl ester. Data are normalized to total protein content. (i) Activities of caspases in A-5RT3ANGPTL4 after 2 h suspension. Values (mean±S.D.) represent a fold change above A-5RT3CTRL (n=3). *:p<0.05, **:p<0.01.
Purifided fibrinogen-like fragment of ANGPTL4 (cANGPTL4) was immobilized onto ProteOn GLC chip by amine coupling as recommended by the manufacturer (Bio-Rad). Different concentrations of integrins were introduced into the GLC chip at a flow rate of 25 μl/min for […] with running buffer (50 mM Tris, pH8.0, 100 mMNaC1). […] The affinity constants of the 6 mAbs for ANGPTL4 were determined using the one shot Kinetics protocol as described by manufacturer (Bio-Rad).
Purified fibrinogen-like fragment of ANGPTL4 (cANGPTL4) was immobilized onto ProteOn GLC chip by amine coupling, as recommended by the manufacturer (Bio-Rad). […] The affinity constants of the 6 mAbs for ANGPTL4 were determined using the One-Shot Kinetics protocol as described by manufacturer (Bio-Rad).

T2 sequence (P05556 21-798 limits assumed): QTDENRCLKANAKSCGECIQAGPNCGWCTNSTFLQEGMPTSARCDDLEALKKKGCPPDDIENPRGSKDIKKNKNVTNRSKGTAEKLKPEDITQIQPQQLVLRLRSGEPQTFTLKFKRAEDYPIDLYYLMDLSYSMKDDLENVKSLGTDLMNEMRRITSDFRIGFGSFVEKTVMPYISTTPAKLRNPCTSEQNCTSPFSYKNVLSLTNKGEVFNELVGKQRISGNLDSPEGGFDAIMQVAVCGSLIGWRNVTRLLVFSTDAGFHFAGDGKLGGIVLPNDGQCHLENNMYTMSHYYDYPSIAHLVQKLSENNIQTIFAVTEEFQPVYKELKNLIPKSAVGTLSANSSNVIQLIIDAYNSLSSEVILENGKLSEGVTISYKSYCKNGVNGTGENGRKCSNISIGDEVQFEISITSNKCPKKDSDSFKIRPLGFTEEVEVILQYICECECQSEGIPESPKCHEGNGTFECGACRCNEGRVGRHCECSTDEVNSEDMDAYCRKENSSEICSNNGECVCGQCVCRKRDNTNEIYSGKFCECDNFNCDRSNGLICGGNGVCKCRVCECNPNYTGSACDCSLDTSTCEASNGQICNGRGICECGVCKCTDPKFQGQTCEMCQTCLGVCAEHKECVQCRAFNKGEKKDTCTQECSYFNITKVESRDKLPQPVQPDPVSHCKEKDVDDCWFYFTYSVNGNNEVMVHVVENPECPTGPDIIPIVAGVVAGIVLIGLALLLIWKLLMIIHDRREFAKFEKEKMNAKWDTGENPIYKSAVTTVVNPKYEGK
T1 sequence (P18084 24-799 limits assumed): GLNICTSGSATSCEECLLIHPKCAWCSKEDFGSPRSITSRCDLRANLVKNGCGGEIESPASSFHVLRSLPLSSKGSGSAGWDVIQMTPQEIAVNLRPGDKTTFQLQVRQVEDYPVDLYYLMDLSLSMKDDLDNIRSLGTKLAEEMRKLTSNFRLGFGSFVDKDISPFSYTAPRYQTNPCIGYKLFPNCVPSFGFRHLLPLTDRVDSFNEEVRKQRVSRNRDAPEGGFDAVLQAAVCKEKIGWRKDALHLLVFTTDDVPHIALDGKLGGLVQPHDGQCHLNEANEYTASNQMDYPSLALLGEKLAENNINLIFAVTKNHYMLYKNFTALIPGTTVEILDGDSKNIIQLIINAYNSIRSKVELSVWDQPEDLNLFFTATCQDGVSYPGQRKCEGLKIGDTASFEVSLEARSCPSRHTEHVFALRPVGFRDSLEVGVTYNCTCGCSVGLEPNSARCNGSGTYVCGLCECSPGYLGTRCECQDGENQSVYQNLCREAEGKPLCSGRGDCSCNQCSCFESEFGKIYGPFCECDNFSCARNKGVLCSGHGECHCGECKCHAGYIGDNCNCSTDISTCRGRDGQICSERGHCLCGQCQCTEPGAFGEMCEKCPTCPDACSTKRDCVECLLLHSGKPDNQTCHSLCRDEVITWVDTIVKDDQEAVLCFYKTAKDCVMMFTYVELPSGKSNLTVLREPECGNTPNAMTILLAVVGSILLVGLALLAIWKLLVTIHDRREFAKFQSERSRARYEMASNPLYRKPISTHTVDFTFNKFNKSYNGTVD

B1: recombinant C-terminal fibrinogen-like fragment of human ANGPTL4 (cANGPTL4, a.a. 186-406) (ligand, UniProt Q9BY76 186-406, looked up)
chain: RDCQELFQVGERQSGLFEIQPQGSPPFLVNCKMTSDGGWTVIQRRHDGSVDFNRPWEAYKAGFGDPHGEFWLGLEKVHSITGDRNSRLAVQLRDWDGNAELLQFSVHLGGEDTAYSLQLTAPVAGQLGATTVPPSGLSVPFSTWDQDHDLRRDKNCAKSLSGGWWFGTCSHSNLNGQYFRSIPQQRQKLKKGIFWKTWRGRYYPLQATTMLIQPMAAEAAS
notes: range 186-406; also called immobilized-ANGPTL4; fibrinogen-like fragment of ANGPTL4; not shown: N-terminal histidine tag
As a reminder, the Kd is the free concentration of one partner at which half of the binding sites on the other are occupied at equilibrium, for simple one-to-one binding. As to B1, the Kd in assay [1] and in assay [2] was about 100 nM in each case.
